The target of test [1] is T1, native human purified properdin (Quidel; Cat No: A412) (human, UniProt P27918 28-469).
T1 construct: mature; Native purified commercial protein; In the haemolysis assays the properdin is the one present in normal human serum; also called human properdin; factor P
The experiment in a line: SPR (ProteOn XPR36), human properdin amine-coupled on GLC chip, mAb injected, 25 C, PBS pH 7.4. The method, then:
The kinetic rate constants for the binding of anti properdin candidates to native human purified properdin (Quidel; Cat No: A412) were determined by Surface plasmon resonance-based measurement using the ProteOn XPR36 (Bio-Rad). All binding measurements were performed in PBS (pH 7.4, 0.005% Surfactant P20) at 25° C. To measure the binding rate constants of properdin to the mAbs, human properdin was immobilized onto a GLC sensor chip using amine coupling chemistry. […] The data, in the form of sensograms were analysed using data-fitting programs integrated in the ProteOn system. Binding affinities in terms of KD value are provided for tested antibodies in table 7.

For test [2], the target named is T1, native human purified properdin …. Kind of test: SPR, purified hybridoma antibody on human properdin. (In general: SPR reads the build-up and loss of mass on a sensor chip optically.)
Test [3] has as its target T2, recombinant human neonatal Fc receptor (rhFcRn), Sino Biologics (human, UniProt P55899 24-297; P61769 21-119).
T2 construct: Bought protein
Kind of test: SPR (ProteOn XPR36), rhFcRn immobilized on GLC chip, antibody injected, PBS pH 6.0, 25 C. The method, then:
The kinetic constants for the binding of antibodies to recombinant human neonatal Fc receptor (hFcRn) were determined by Surface plasmon resonance-based measurement using the ProteOn XPR36 (Bio-Rad). Recombinant rhFcRn receptor (Sino Biologics) was immobilized on a GLC chip following manufacturer's instruction. […] Reactions were carried in PBS (pH 6.0, 0.005% Surfactant P20) at 25° C. After each sample run, the chip surface was regenerated using PBS, pH 7.4. The data, in the form of sensograms, was analysed using the data-fitting programs in the ProteOn system.

T2 sequence (P55899 24-297 limits assumed, chain 1 of 2): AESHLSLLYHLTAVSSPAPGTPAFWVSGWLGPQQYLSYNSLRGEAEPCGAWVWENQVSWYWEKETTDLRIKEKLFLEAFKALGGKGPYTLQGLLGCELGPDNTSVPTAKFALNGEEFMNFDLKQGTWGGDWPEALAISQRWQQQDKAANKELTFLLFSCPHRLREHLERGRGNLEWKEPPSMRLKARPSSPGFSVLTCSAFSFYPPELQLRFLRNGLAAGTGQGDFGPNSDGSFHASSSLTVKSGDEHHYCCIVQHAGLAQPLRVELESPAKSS
T2 sequence (P61769 21-119 limits assumed, chain 2 of 2): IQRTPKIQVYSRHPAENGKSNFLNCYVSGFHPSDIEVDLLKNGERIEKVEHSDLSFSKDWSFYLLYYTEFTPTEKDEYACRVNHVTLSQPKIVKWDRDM
T1 sequence (P27918 28-469): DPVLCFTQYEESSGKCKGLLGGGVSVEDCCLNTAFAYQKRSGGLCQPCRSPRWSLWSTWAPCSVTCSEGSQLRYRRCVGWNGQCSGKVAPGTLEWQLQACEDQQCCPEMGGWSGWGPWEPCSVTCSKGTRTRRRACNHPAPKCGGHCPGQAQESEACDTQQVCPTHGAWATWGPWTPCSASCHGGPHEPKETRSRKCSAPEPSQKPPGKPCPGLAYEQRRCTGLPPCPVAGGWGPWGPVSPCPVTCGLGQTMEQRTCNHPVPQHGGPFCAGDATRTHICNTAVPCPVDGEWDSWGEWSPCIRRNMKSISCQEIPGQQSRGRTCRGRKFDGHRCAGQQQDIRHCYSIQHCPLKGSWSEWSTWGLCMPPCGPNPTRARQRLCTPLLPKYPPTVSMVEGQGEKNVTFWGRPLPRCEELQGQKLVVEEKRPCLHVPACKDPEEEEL

B1: P11 (humanized version of E12) (antibody, IgG4, V domains shown)
VH: QVQLQQSGPELVRPGVSVKISCKGSGYTFTDYALHWVKQSHAESLEWIGVISTYYGDASYNQKFKDKATMTVDISSSTAYLELARLTSEDSAIYYCARDGYLDYWGQGTLVTVSS
VL: QSVLTQPPSVSAAPGQKVTISCSGSSSNIGNNYVSWYVQLPGTAPKLLIYDNNKRFSGVPDRFSGSKSGTSATLGITGLQTGDEADYYCGAWDGSLREAVFGGGTKVTVLR
notes: Full-length humanized IgG4 made in CHO-S; also called pZRCIII Hyg E12LC-E12HC
With B1, in test [1], the affinity, expressed as Kd, was 2.07 nM; the koff (commonly the first-order rate constant of dissociation) was 0.000867 s⁻¹; the kon (commonly the second-order rate constant of association) turned out to be 420000 M⁻¹ s⁻¹.

B2: P14 (humanized version of 124F9) (antibody, IgG4, V domains shown)
VH: QVQLQESGPGLVKPSQTLSLTCTVSGYSITSGYYWNWIRQHPGKGLEWIGYISYDGGNKYNPSLKSRVTISRDTSKNQFSLKLSSVTAADTAVYYCARDLDGYESMDYWGQGTSVTVSS
VL: DIVMTQSPLSLSVTPGQPASISCKSSQSLLDINGKTYLNWYLQKPGQSPQLLIYLVSKLDSGVPDRFSGSGSGTDFTLKISRVEAEDVGVYYCWQGTHFPYTFGQGTKVEIKR
notes: Full-length humanized IgG4 made in CHO-S; also called pZRCIII Hyg P14LC-P14HC
B2: in test [1], binding was put at a Kd of 2.81 nM, the koff worked out at 0.00151 s⁻¹ and the association rate constant (kon) was 540000 M⁻¹ s⁻¹.

B3: 103B2 (antibody, V domains shown)
VH: KPSQSLSLTCSVTGYSITSTYYWNWIRQFPGNKLEWMGYISYDGTNKYNPSLKNRISITRDTSKNRFFLKLNSVTTEDTATYYCAGDDYDRSPWFAYWGQGTLVTVSA
VL: DIVLTQSPASQSASLGESVTITCLASQTIGTWLAWYQQKPGKSPQLLIYAATSLADGVPSRFSGSGSGTKFSFKISSLQAEDFVSYYCQQLYSTPWTFGGGTKLEIKR
notes: Murine hybridoma antibody purified by Protein A; also called murine anti-properdin hybridoma mAb 103B2
With B3, in test [2], the affinity, expressed as Kd, was 0.731 nM; the koff came to 0.000509 s⁻¹; the on-rate constant (kon) came out at 696000 M⁻¹ s⁻¹.

B4: P15 (GLS) (humanized version of 103B2 with GLS in constant region) (antibody, human IgG4 S228P)
heavy: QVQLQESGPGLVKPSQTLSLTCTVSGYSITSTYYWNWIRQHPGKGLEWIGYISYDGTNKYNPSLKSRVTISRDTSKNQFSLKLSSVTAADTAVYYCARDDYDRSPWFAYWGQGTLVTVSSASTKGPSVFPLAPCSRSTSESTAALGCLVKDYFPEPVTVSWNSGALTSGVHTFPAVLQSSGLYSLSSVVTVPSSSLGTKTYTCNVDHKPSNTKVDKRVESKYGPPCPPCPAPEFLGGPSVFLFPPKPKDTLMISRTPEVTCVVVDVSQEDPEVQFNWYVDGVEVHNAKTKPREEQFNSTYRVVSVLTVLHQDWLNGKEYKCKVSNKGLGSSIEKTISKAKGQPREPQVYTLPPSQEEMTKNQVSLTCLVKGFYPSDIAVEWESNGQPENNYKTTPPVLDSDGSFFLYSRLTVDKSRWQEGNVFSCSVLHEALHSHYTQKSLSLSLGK
VL: DIQMTQSPSSLSASVGDRVTITCLASQTIGTWLAWYQQKPGKAPKLLIYAATSLADGVPSRFSGSGSGTDFTLTISSLQPEDFATYYCQQLYSTPWTFGGGTKLEIKR
notes: also called pZRCIII Hyg P15LC-P15HC (IgG4 GLS); copies: 2 + 2
On to B4, for which, in test [3], the Kd (as a rule, a measure of binding affinity in units of concentration) came out at 66 nM; the koff amounted to 0.0329 s⁻¹; the kon was 502000 M⁻¹ s⁻¹. In test [1], the Kd came out at 0.162 nM, the koff was found to be 0.000128 s⁻¹ and the kon is 792000 M⁻¹ s⁻¹.

B5: P15 (humanized version of 103B2) (antibody, human IgG4 S228P)
heavy: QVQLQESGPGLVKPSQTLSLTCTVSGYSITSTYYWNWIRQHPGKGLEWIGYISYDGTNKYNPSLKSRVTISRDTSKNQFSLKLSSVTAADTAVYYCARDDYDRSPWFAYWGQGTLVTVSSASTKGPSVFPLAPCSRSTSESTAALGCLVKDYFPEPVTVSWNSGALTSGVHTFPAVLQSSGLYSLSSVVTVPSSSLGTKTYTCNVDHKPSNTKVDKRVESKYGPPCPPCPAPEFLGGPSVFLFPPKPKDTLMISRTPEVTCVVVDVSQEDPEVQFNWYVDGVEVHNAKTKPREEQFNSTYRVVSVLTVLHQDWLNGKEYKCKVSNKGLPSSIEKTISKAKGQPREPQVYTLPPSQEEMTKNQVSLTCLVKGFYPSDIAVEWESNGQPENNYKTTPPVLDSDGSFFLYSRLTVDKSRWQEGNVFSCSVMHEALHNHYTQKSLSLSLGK
VL: DIQMTQSPSSLSASVGDRVTITCLASQTIGTWLAWYQQKPGKAPKLLIYAATSLADGVPSRFSGSGSGTDFTLTISSLQPEDFATYYCQQLYSTPWTFGGGTKLEIKR
notes: also called pZRCIII Hyg P15LC-P15HC; copies: 2 + 2
Consider B5, for which, in test [3], the Kd was found to be 554 nM, the koff was found to be 0.125 s⁻¹ and the on-rate (kon) worked out at 227000 M⁻¹ s⁻¹. For the same molecule, in test [1], the Kd came out at 0.154 nM, the off-rate (koff) turned out to be 0.000142 s⁻¹ and the kon stood at 925000 M⁻¹ s⁻¹.
